# In the RNAGym collection of RNA variant scans (doi:10.7554/elife.90254):
# B1: LINE1-mini (parent)
# chain: GGCAGAGCUCAACACAGCGUGGCAAAGUGGCUGUGGCUAGACUGCC
# Variants of: B1
# Assay: self-cleavage, relative activity (ratio to wild type); higher = more cleavage; in vitro, sequencing; the parent is a self-cleaving ribozyme
row,Variant,self-cleavage
1,C15U G36U,0.12
2,C3A C10A,0.07
3,G7A G19A,0.26
4,G1C A24C,0.07
5,C3G G17A,0.14
6,C8U G33U,0.16
7,U43G C46U,0.28
8,C3U G33U,0.1
9,G27U U28C,1.23
10,U34C G44A,0.12
11,C18A A41C,0.05
12,A6G U38C,0.07
13,U9A A24C,0.56
14,G21U U28C,0.92
15,C13A A24U,0.08
16,A4G C18G,0.16
17,A11G G21A,0.05
18,G27A C46G,1.05
19,A6C A26C,0.48
20,G5A A24U,0.11
21,G5A A24G,0.23
22,A11G A16C,0.02
23,G19A A26C,0.52
24,C3U G22C,0.48

row,Variant,self-cleavage
1,G1C U9A,0.02
2,C8G G19U,0.04
3,G7C A24G,0.12
4,A11G A39U,0.05
5,U20G G40U,0.13
6,C10U A11C,0.05
7,C8G G30A,0.21
8,A6U U28A,0.4
9,G19C A25G,0.26
10,G5C G19A,0.14
11,G5A G7U,0.26
12,C23G U34A,0.09
13,C8G U28A,0.05
14,G5A A26G,0.1
15,G7C A26G,0.11
16,G29C C46A,0.68
17,A12U G36C,0.04
18,C18A G30C,1.99
19,C18A G40A,0.05
20,C18A G44C,0.22
21,A16G A41G,0.15
22,C8U G17U,0.14
23,A12G A14G,0.04
24,A39U A41G,0.14

row,Variant,self-cleavage
1,A4C G35U,0.18
2,G19A A25C,1.21
3,A24U G40C,0.11
4,A26C G44A,0.87
5,C10G U38C,0.02
6,G29A G44U,0.26
7,G36C U38C,0.05
8,G36C U38G,0.02
9,C13G A14C,0.05
10,G7A A41U,0.18
11,A12U G22A,0.4
12,C8G A25U,0.26
13,C8G A25C,0.11
14,C13A A25G,0.1
15,G33C U38G,0.03
16,C13U G30U,0.15
17,A26C C45U,1.17
18,A41C U43C,0.08
19,G7A G30A,0.24
20,C8U C45A,0.21
21,A14G A39U,0.37
22,A16U G27C,0.16
23,G21U G44A,0.53
24,G1A G44U,0.91

row,Variant,self-cleavage
1,G1A G21A,1.86
2,C18G G33A,0.04
3,G33C,0.07
4,G19A G36A,0.18
5,G19U G29U,0.8
6,C10G C13G,0.08
7,A24C C45A,0.16
8,C18U C46A,0.46
9,C18A U34G,0.04
10,C42U,0.35
11,C10G U32G,0.02
12,C13U C23A,0.26
13,C8U A39G,0.05
14,U9A A11U,0.03
15,G7A G33C,0.12
16,G27U G30A,1.86
17,C18A U28G,0.5
18,C18U A41C,0.05
19,C18U G36A,0.15
20,C15G U34C,0.03
21,A25C G30C,1.64
22,C3G A41U,0.29
23,G22U C23U,1.8
24,G33A G40A,0.07

row,Variant,self-cleavage
1,C23G A41U,0.53
2,G29A C31U,0.95
3,U28G G36U,0.12
4,G21U G33A,0.26
5,C13A A39C,0.17
6,C13G U43C,0.02
7,A11C A14G,0.04
8,A26G C46U,0.58
9,C42U G44A,0.16
10,G44U C45G,0.17
11,A11U G33U,0.04
12,G5C A16G,0.04
13,G7C U28A,0.18
14,G21C A41G,0.32
15,U38G G44A,0.03
16,U9G G30U,0.1
17,G27U G33A,0.09
18,A4G G19A,0.95
19,A16G C18U,0.33
20,A4U G21U,0.35
21,G17C G29U,0.32
22,A12C C13A,0.08
23,U9G U28G,0.06
24,A4U U43C,0.03

row,Variant,self-cleavage
1,A4C C10U,0.09
2,A25C C42G,0.04
3,C8U C46A,0.33
4,G17U A41G,0.08
5,A4C G33U,0.06
6,C10G G33A,0.03
7,G2U U38G,0.02
8,U34C C37U,0.05
9,A25U A26U,1.23
10,G22A G29C,0.21
11,G5U A11U,0.04
12,C15A G19A,0.06
13,A16C A24C,0.07
14,G2U U28G,0.04
15,A16U G33A,0.07
16,U34C G40U,0.1
17,G2A C3U,0.9
18,A11C A12G,0.04
19,U20G C23U,0.54
20,G5C C13A,0.09
21,G30U G33C,0.11
22,A6G G19A,0.09
23,A4G C8G,0.11
24,G21U C42G,0.04

row,Variant,self-cleavage
1,U28A G36C,0.06
2,U9A C13G,0.23
3,A6C G27A,0.5
4,U20A G44U,0.2
5,G5A U20G,0.13
6,C10G C45U,0.14
7,C23G C37U,0.02
8,G21C A25C,0.85
9,A4G C23G,0.41
10,G2C A25G,0.06
11,U9C A41G,0.05
12,C8U A24G,0.14
13,A4U G5C,0.45
14,A24U C45A,0.31
15,U20C G21C,0.39
16,U20C A26C,0.36
17,U20C A26G,0.36
18,U9A A25C,0.07
19,U9A A25G,0.17
20,A12G G36A,0.06
21,A26U C37U,0.08
22,A6U C18A,0.52
23,A12G A41U,0.04
